IntAct's records for PubMed 22178926

B1: Integrin beta-3 (Homo sapiens), P05106 (parent)
chain: MRARPRPRPLWATVLALGALAGVGVGGPNICTTRGVSSCQQCLAVSPMCAWCSDEALPLGSPRCDLKENLLKDNCAPESIEFPVSEARVLEDRPLSDKGSGDSSQVTQVSPQRIALRLRPDDSKNFSIQVRQVEDYPVDIYYLMDLSYSMKDDLWSIQNLGTKLATQMRKLTSNLRIGFGAFVDKPVSPYMYISPPEALENPCYDMKTTCLPMFGYKHVLTLTDQVTRFNEEVKKQSVSRNRDAPEGGFDAIMQATVCDEKIGWRNDASHLLVFTTDAKTHIALDGRLAGIVQPNDGQCHVGSDNHYSASTTMDYPSLGLMTEKLSQKNINLIFAVTENVVNLYQNYSELIPGTTVGVLSMDSSNVLQLIVDAYGKIRSKVELEVRDLPEELSLSFNATCLNNEVIPGLKSCMGLKIGDTVSFSIEAKVRGCPQEKEKSFTIKPVGFKDSLIVQVTFDCDCACQAQAEPNSHRCNNGNGTFECGVCRCGPGWLGSQCECSEEDYRPSQQDECSPREGQPVCSQRGECLCGQCVCHSSDFGKITGKYCECDDFSCVRYKGEMCSGHGQCSCGDCLCDSDWTGYYCNCTTRTDTCMSSNGLLCSGRGKCECGSCVCIQPGSYGDTCEKCPTCPDACTFKKECVECKKFDRGALHDENTCNRYCRDEIESVKELKDTGKDAVNCTYKNEDDCVVRFQYYEDSSGKSILYVVEEPECPKGPDILVVLLSVMGAILLIGLAALLIWKLLITIHDRKEFAKFEEERARAKWDTANNPLYKEATSTFTNITYRGT

Variants of: B1
Conditions: with ITGA2B

Row | effect of a mutation on the interaction | Variant
1 | disrupting interaction strength | K742A
2 | disrupting interaction strength | K742E
3 | disrupting interaction strength | K742S
4 | disrupting interaction strength | K742L
5 | disrupting interaction strength | K742C
